Data from patent US20190309074A1, “DEGLYCOSYLATED ANTIBODY SPECIFICALLY BINDING TO CLEC14A AND USES THEREOF” (WOORI TECHNOLOGIES CORPORATION, priority 2016, published 2019).

Columns and labels:
HUVECs [1] = experiment: HUVEC morphology by immunocytochemistry; type: cell-based, human
Protocol: (§1) In addition, the morphology of HUVEC was evaluated in the presence or absence of deglyco C1 IgG using immunocytochemistry. […] In order to evaluate effects of deglyco C1 IgG on the activity of endothelial cells, which is an initial inflammatory response to a harmful stimulus, HUVECs were treated with deglyco C1 IgG, and expression of an endothelial cell activity marker including VCAM-1 (vascular cell adhesion molecule-1) and ICAM-1 (intercellular cell adhesion molecule-1) was measured to monitor HUVEC activity. Human tumor necrosis factor-alpha (hTNFα) was used as a positive control group for endothelial cell activity.
In order to investigate correlations between tumor angiogenesis and clec14a, first, xenograft tumor models including SNU182 human liver cell or CFPAC-1 human pancreatic cancer cell carcinomas were established, and immunohistochemistry was conducted on commercially available antibodies of clec14a and CD31, which is a well-known endothelial marker protein. Immunohistochemistry was conducted as follows. HUVECs (5×10^4) grown on a 0.1% (w/v) gelatin-coated glass cover slip were incubated in the presence or absence of deglyco C1 IgG for 24 hours at 37° C. […]

HUVECs [2] = experiment: flow cytometry binding to endothelial cells; type: cell-based, human
Protocol: In order to identify whether or not deglyco C1 IgG binds to human endothelial cells, flow cytometry was conducted with HUVECs. […] In addition, in order to measure binding affinity of C1 IgG to hclec14a-ECD (extracellular domain of human clec14a), binding affinity of antibody-antigen binding was measured in real time. It can be seen that deglyco C1 IgG has a KD constant (equilibrium dissociation constant) of 6 nM, which is similar to that of parent antibody IgG (FIG. 3C).

HUVEC activity = experiment: endothelial cell activation (VCAM-1, ICAM-1 expression); type: cell-based, human
Protocol: as §1

[3] = test system: HCT116 human colorectal cancer cells; experiment: Matrigel plug angiogenesis assay, CD31 microvessel density; type: in vivo; conditions: single dose of 5 mg/kg, 14 days
Protocol: (§2) Matrigel plug angiogenesis assay was conducted in the presence of deglyco C1 IgG or bevacizumab with a single dose of 5 mg/kg or the absence thereof using HCT116 human colorectal cancer cells and bevacizumab-applied HCT116 human colorectal cancer cells (HCT116 and HCT116/Beva). 14 days later, the Matrigel plug was removed, and immunohistochemistry was conducted on CD31 and microvascular markers. A microvessel density was measured by quantifying CD31 positive per field in an image each obtained by a confocal microscope.

HCT116/Beva cells = experiment: as above; type: in vivo; conditions: single dose of 5 mg/kg, 14 days
Protocol: as §2

[4] = test system: binding of clec14a-CTLD to HUVECs; experiment: cell ELISA: hclec14a-CTLD-Fc-HRP binding to HUVECs; type: cell-based, human; conditions: increasing antibody concentration
Protocol: In order to analyze action mechanisms of deglyco C1 IgG at a molecule-scale, specifically, in angiogenesis, HUVECs were treated with hclec14a-CTLD-Fc-HRP (HRP-labeled hclec14a-CTLD-Fc) in the absence or presence of an increasing concentration of parent antibody IgG or deglyco C1 IgG.

[5] = test system: VEGF-dependent tube formation; experiment: VEGF-dependent HUVEC tube formation assay; type: cell-based, human; conditions: 20 μg ml^−1, 18 hours
Protocol: In order to investigate in vitro effects of deglyco C1 IgG on VEGF-dependent angiogenesis, HUVECs were treated with VEGF in the presence or absence of deglyco C1 IgG, and then HUVEC tube formation assay was conducted. 150 μl of Matrigel was added to a 48-well plate and incubated at 37° C. for 30 minutes. HUVEC (10^5) cultured in EGM-2 were collected, seeded on the Matrigel-coated plate and incubated at 37° C. for 18 hours in the presence or absence of clone 1 IgG, parent antibody IgG, deglycosylated clec14a-CTLD IgG or bevacizumab. HUVECs cultured in VEGF-containing EBM (endothelial cell basal medium) were seeded to the Matrigel-coated plate and incubated at 37° C. for 18 hours in the presence or absence of deglyco C1 IgG (20 μg ml^−1).

[6] = test system: VEGF-dependent blood vessel growth in rat aorta; experiment: ex vivo rat aortic ring assay; conditions: cultured in combination with VEGF
Protocol: In order to further investigate effects of deglyco C1 IgG on VEGF-dependent angiogenesis, ex vivo rat aortic ring assay was conducted in the presence or absence of deglyco C1 IgG and bevacizumab. Blood vessels were almost not grown in the rat aorta in endothelial basal medium (EBM), whereas most blood vessels were grown in the rat aorta under VEGF expression conditions.

[7] = test system: phosphorylation of VEGFR, Akt and ERK; experiment: immunoblot of VEGF-dependent signaling in HUVECs; type: cell-based, human; conditions: VEGF-treated HUVECs
Excerpt: In order to investigate effects of deglyco C1 IgG on VEGF-dependent signaling actions in endothelial cells, VEGF-treated HUVECs were subjected to immunoblot analysis in the presence or absence of deglyco C1 IgG to monitor changes in phosphorylation of VEGFR (VEGF receptor), Akt and ERK (extracellular signal-regulated kinase).

[8] = test system: HEK293F cells transfected with wild-type clec14a; experiment: clec14a-mediated cell-cell contact (cell aggregate) assay; type: cell-based, human
Excerpt: In order to identify the mechanism by which deglyco C1 IgG acts on angiogenesis, the number of cell aggregates formed from HEK293F cells transfected with wild-type clec14a and cultured in the presence or absence of parent antibody IgG or deglyco C1 IgG was monitored to conduct functional assay on clec14a-mediated cell-cell contacts.
The parent antibody IgG was used as a positive control group to specifically block clec14a-mediated cell-cell contacts.

[9] = test system: VEGF-dependent microvessel formation; experiment: mouse Matrigel plug assay, VEGF-dependent microvessel formation; type: in vivo
Protocol: In order to observe in vivo efficacies of deglyco C1 IgG on VEGF-dependent angiogenesis, a mouse Matrigel model was established, hemoglobin level was measured as a marker of microvessel formation, and inhibitory activities against microvessel formation of deglyco C1 IgG and bevacizumab were compared by a mouse Matrigel plug assay.

U87 human glioma = experiment: U87 tumor growth; type: in vivo

B1: deglyco C1 IgG: deglycosylated clone 1 IgG; light chain CDR1 TGSSSNIGRCGVT (SEQ ID NO: 2), N32R/N33C/S34G (antibody, V domains shown)
VH: EVQLVESGGGLVQPGGSLRLSCAVSGFTFSGYDMSWIRQAPGKGLEWVAGIYPDGGNTYYADSVKGRFTISRDDSKNTFYLQMNSLRAEDTAVYYCARGATWWVLGPFDYWGQGTLVTVSS
VL: DIQLTQSPSSLSASVGDRVTITCTGSSSNIGRCGVTWYQQKPGKAPKLLIYADSHRPSGVPSRFSGSGSGTDFTLTISSLQPEDFATYYCGAWDDSLSGYVFGQGTKVEIKR
morphology of HUVECs (HUVECs [1]): did not change the morphology | binding to surfaces of HUVECs (HUVECs [2]): specifically bound to the surfaces of HUVECs | HUVEC activity (VCAM-1, ICAM-1 expression) (HUVEC activity): almost no impact | microvessel formation (CD31 positive per field), HCT116 [3]: significantly reduced microvessel formation ability | microvessel formation (CD31 positive per field), HCT116/Beva (HCT116/Beva cells): significantly suppressed | suppression of binding of clec14a-CTLD to HUVECs [4]: significantly suppressed | VEGF-dependent tube formation [5]: removed VEGF-dependent tube formation significantly and almost perfectly | number of blood vessels grown in the rat aorta [6]: reduced the number of blood vessels grown in the rat aorta | VEGF-dependent phosphorylation of VEGFR, Akt and ERK [7]: almost no effect | inhibition of clec14a-mediated cell-cell contacts (cell aggregates) [8]: inhibitory efficacy | hemoglobin content (microvessel formation) [9]: significantly reduced a hemoglobin content | body weight (U87 human glioma; U87 tumor model): no impact on body weight | tumor size of U87 cells (U87 human glioma; measured weekly for one month): significantly reduces the tumor sizes
